Drawing on the supplement of paper PMC9233669, this text covers self-aminoacylation for 23 sequences.

Variants at the floor of the assay were thinned out.

One series has as its system biotinyl-Phe-oxazolone. Put plainly: self-aminoacylation, catalytic enhancement (BFO) (fold over background); higher = more active; k-Seq, kA / k0A0; sequences stand for … in GGGAAUGGAUCCACAUCUACGAAUUC…UUCACUGCAGACUUGACGAAGCUG
The essentials: (§1)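 Mutagenized RNA pools (0.43 μM; 21-nt variable region) were treated with 2–1250 μM of each biotinyl-aminoacyl-oxazolone. Conditions were 50 μL HEPES/NaCl/KCl/MgCl2/CaCl2 buffer, 5% acetonitrile, pH 6.9–7.0, room temperature, 90 minutes. Catalytic enhancement, the median kA relative to the uncatalyzed rate, was derived from streptavidin capture, qPCR and Illumina sequencing.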

Another series has as its system biotinyl-Met-oxazolone. Put plainly: self-aminoacylation, catalytic enhancement (BMO) (fold over background); higher = more active; k-Seq, kA / k0A0; sequences stand for … in GGGAAUGGAUCCACAUCUACGAAUUC…UUCACUGCAGACUUGACGAAGCUG
The essentials:
as §1

A further series has as its system biotinyl-Leu-oxazolone. The series is described as follows: self-aminoacylation, catalytic enhancement (BLO) (fold over background); higher = more active; k-Seq, kA / k0A0; sequences stand for … in GGGAAUGGAUCCACAUCUACGAAUUC…UUCACUGCAGACUUGACGAAGCUG
The essentials: as §1

The subject of a further series is biotinyl-Val-oxazolone. The series is described as follows: self-aminoacylation, catalytic enhancement (BVO) (fold over background); higher = more active; k-Seq, kA / k0A0; sequences stand for … in GGGAAUGGAUCCACAUCUACGAAUUC…UUCACUGCAGACUUGACGAAGCUG
The essentials:
as §1

A further series deals with biotinyl-Trp-oxazolone. The series is described as follows: self-aminoacylation, catalytic enhancement (BWO) (fold over background); higher = more active; k-Seq, kA / k0A0; sequences stand for … in GGGAAUGGAUCCACAUCUACGAAUUC…UUCACUGCAGACUUGACGAAGCUG
The essentials:
as §1

A further series concerns biotinyl-Ile-oxazolone. Put plainly: self-aminoacylation, catalytic enhancement (BIO) (fold over background); higher = more active; k-Seq, kA / k0A0; sequences stand for … in GGGAAUGGAUCCACAUCUACGAAUUC…UUCACUGCAGACUUGACGAAGCUG
In a few lines: as §1

In the case of “CCGCACUUCAAGCAAACGGUC [Fam1B.1 aminoacylation ribozyme variant]”, the self-aminoacylation in the series on biotinyl-Phe-oxazolone amounted to 0.946; in the series with biotinyl-Met-oxazolone, 0.724; with biotinyl-Leu-oxazolone it was 0.684; in the series with biotinyl-Val-oxazolone, 1.3; in the series on biotinyl-Trp-oxazolone it was 1.04; in the series with biotinyl-Ile-oxazolone it was 0.937.
Take “AUUACCUUGGCCAUCGAGUGA [Fam2.1 aminoacylation ribozyme variant]”: the self-aminoacylation in the series with biotinyl-Phe-oxazolone stood at 2.01; in the series on biotinyl-Met-oxazolone it was 2.38; in the series on biotinyl-Leu-oxazolone, 2.5; in the series with biotinyl-Val-oxazolone, 1.62; with biotinyl-Trp-oxazolone it was 3.26; in the series on biotinyl-Ile-oxazolone, 1.95.
For “AUUCACCAUGGUCAUCGGGUG [Fam2.2 aminoacylation ribozyme variant]”, the self-aminoacylation in the series with biotinyl-Phe-oxazolone amounted to 69.7; in the series on biotinyl-Met-oxazolone it was 10.3; in the series with biotinyl-Leu-oxazolone, 15.6; in the series on biotinyl-Val-oxazolone, 6.37; in the series with biotinyl-Trp-oxazolone it was 10.5; with biotinyl-Ile-oxazolone it was 6.21.
Take “AUUCUCAUAGGUCAUCGGGUG [Fam2.2 aminoacylation ribozyme variant]”: the self-aminoacylation with biotinyl-Phe-oxazolone is 82.5; in the series with biotinyl-Met-oxazolone, 10.8; in the series on biotinyl-Leu-oxazolone, 13.5; with biotinyl-Val-oxazolone, 6.14; in the series with biotinyl-Trp-oxazolone it was 10.6; in the series on biotinyl-Ile-oxazolone it was 5.71.
For the sequence “AGUACCCUGGUCAUCGAGUGA [Fam2.1 aminoacylation ribozyme variant]”, the self-aminoacylation in the series with biotinyl-Phe-oxazolone was found to be 28.7; in the series on biotinyl-Met-oxazolone, 13.2; in the series with biotinyl-Leu-oxazolone, 12.8; with biotinyl-Val-oxazolone, 6.48; in the series with biotinyl-Trp-oxazolone it was 13.6; in the series with biotinyl-Ile-oxazolone it was 6.11.
For “AAAUUUGCUAAUAGUCGCAAU [Fam3.1 aminoacylation ribozyme variant]”, the self-aminoacylation was 2.52 with biotinyl-Phe-oxazolone; 2.35 in the series on biotinyl-Met-oxazolone; 2.33 in the series on biotinyl-Leu-oxazolone; 2.13 in the series on biotinyl-Val-oxazolone; 3.09 in the series on biotinyl-Trp-oxazolone; 2.71 with biotinyl-Ile-oxazolone.
Regarding “CUACUUCAAACAAACGGGCUG [Fam1A.1 aminoacylation ribozyme variant]”, the self-aminoacylation in the series with biotinyl-Phe-oxazolone worked out at 1.65; in the series with biotinyl-Met-oxazolone, 0.993; in the series on biotinyl-Leu-oxazolone, 0.999; with biotinyl-Val-oxazolone, 0.934; with biotinyl-Trp-oxazolone, 0.862; in the series with biotinyl-Ile-oxazolone, 1.2.
As for “CUACGUCAAACAAUCGAUCUG [Fam1A.1 aminoacylation ribozyme variant]”, the self-aminoacylation came to 0.827 with biotinyl-Phe-oxazolone; 0.903 in the series on biotinyl-Met-oxazolone; 0.617 in the series with biotinyl-Leu-oxazolone; 0.794 in the series with biotinyl-Val-oxazolone; 1.06 in the series with biotinyl-Trp-oxazolone; 0.801 in the series with biotinyl-Ile-oxazolone.
For “AAGGUUGCGAAUAGUCGCAAG [Fam3.1 aminoacylation ribozyme variant]”, the self-aminoacylation turned out to be 6.53 with biotinyl-Phe-oxazolone; 1.37 in the series with biotinyl-Met-oxazolone; 1.2 in the series with biotinyl-Leu-oxazolone; 1.03 in the series on biotinyl-Val-oxazolone; 0.982 with biotinyl-Trp-oxazolone; 1.64 in the series with biotinyl-Ile-oxazolone.
Regarding “AUUACACUGCUCAUCGAGUGA [Fam2.1 aminoacylation ribozyme variant]”, the self-aminoacylation is 1.51 with biotinyl-Phe-oxazolone; 1.8 in the series on biotinyl-Met-oxazolone; 1.72 in the series on biotinyl-Leu-oxazolone; 1.61 with biotinyl-Val-oxazolone; 2.31 in the series on biotinyl-Trp-oxazolone; 1.55 with biotinyl-Ile-oxazolone.
For “AUUACGCUGGUCAUCUAGUGA [Fam2.1 aminoacylation ribozyme variant]”, the self-aminoacylation stood at 27.3 in the series with biotinyl-Phe-oxazolone; 4.83 with biotinyl-Met-oxazolone; 5.42 with biotinyl-Leu-oxazolone; 2.89 in the series on biotinyl-Val-oxazolone; 6.02 in the series on biotinyl-Trp-oxazolone; 3.21 in the series on biotinyl-Ile-oxazolone.
As for “AUUACCCCGGUUAUCGAGUGA [Fam2.1 aminoacylation ribozyme variant]”, the self-aminoacylation with biotinyl-Phe-oxazolone was found to be 32.1; in the series with biotinyl-Met-oxazolone it was 6.01; with biotinyl-Leu-oxazolone, 6.39; with biotinyl-Val-oxazolone, 2.74; in the series with biotinyl-Trp-oxazolone, 5.95; with biotinyl-Ile-oxazolone, 2.72.
Turning to “CCGCACUUCAAGCAAUCGCUC [Fam1B.1 aminoacylation ribozyme variant]”, the self-aminoacylation in the series with biotinyl-Phe-oxazolone worked out at 6.76; in the series with biotinyl-Met-oxazolone, 1.8; with biotinyl-Leu-oxazolone, 2.14; with biotinyl-Val-oxazolone, 2.73; in the series with biotinyl-Trp-oxazolone it was 2.73; in the series on biotinyl-Ile-oxazolone, 1.93.
Turning to “AUGACCCUGGUCAUCGAGUGC [Fam2.1 aminoacylation ribozyme variant]”, the self-aminoacylation with biotinyl-Phe-oxazolone was determined as 17.4; in the series on biotinyl-Met-oxazolone, 7.15; in the series on biotinyl-Leu-oxazolone it was 6.92; in the series with biotinyl-Val-oxazolone, 2.96; in the series on biotinyl-Trp-oxazolone it was 4; in the series with biotinyl-Ile-oxazolone it was 2.61.
As to “CCACAGUUUAAGCAAUCGGUC [Fam1B.1 aminoacylation ribozyme variant]”, the self-aminoacylation with biotinyl-Phe-oxazolone came out at 0.825; with biotinyl-Met-oxazolone, 0.857; in the series on biotinyl-Leu-oxazolone, 0.786; with biotinyl-Val-oxazolone, 0.758; in the series with biotinyl-Trp-oxazolone, 0.708; with biotinyl-Ile-oxazolone, 0.82.
In the case of “AUACACCUAGGUCAUCCGGUG [Fam2.2 aminoacylation ribozyme variant]”, the self-aminoacylation with biotinyl-Phe-oxazolone worked out at 30.6; in the series with biotinyl-Met-oxazolone, 3.91; in the series with biotinyl-Leu-oxazolone it was 6.81; with biotinyl-Val-oxazolone it was 3.14; in the series on biotinyl-Trp-oxazolone, 5.38; in the series on biotinyl-Ile-oxazolone, 3.5.
Turning to “CCUCACUUCAAGUAAUCGGUC [Fam1B.1 aminoacylation ribozyme variant]”, the self-aminoacylation with biotinyl-Phe-oxazolone is 14.2; in the series with biotinyl-Met-oxazolone it was 0.949; in the series on biotinyl-Leu-oxazolone, 1.17; with biotinyl-Val-oxazolone it was 0.821; with biotinyl-Trp-oxazolone, 8.32; with biotinyl-Ile-oxazolone it was 1.
Take “AUUACCUCGGUCAUCGAGUGA [Fam2.1 aminoacylation ribozyme variant]”: the self-aminoacylation was found to be 20.8 in the series with biotinyl-Phe-oxazolone; 5.12 in the series with biotinyl-Met-oxazolone; 5.32 in the series on biotinyl-Leu-oxazolone; 2.87 in the series on biotinyl-Val-oxazolone; 6.06 in the series on biotinyl-Trp-oxazolone; 2.82 with biotinyl-Ile-oxazolone.
In the case of “AUUCCGCUAGGUCAUCGGGUG [Fam2.2 aminoacylation ribozyme variant]”, the self-aminoacylation in the series with biotinyl-Phe-oxazolone worked out at 128; in the series on biotinyl-Met-oxazolone, 14; with biotinyl-Leu-oxazolone it was 17.7; in the series with biotinyl-Val-oxazolone, 8.93; with biotinyl-Trp-oxazolone it was 13.6; in the series on biotinyl-Ile-oxazolone it was 8.43.
In the case of “AUUCCCCUGUUCAUCGAGUGA [Fam2.1 aminoacylation ribozyme variant]”, the self-aminoacylation in the series with biotinyl-Phe-oxazolone came to 12.4; in the series on biotinyl-Met-oxazolone it was 5.28; in the series with biotinyl-Leu-oxazolone it was 5.39; in the series on biotinyl-Val-oxazolone, 4.28; in the series with biotinyl-Trp-oxazolone it was 7.62; in the series with biotinyl-Ile-oxazolone, 4.07.
Regarding “AAGUUUCCUGAUAGUCGCAAG [Fam3.1 aminoacylation ribozyme variant]”, the self-aminoacylation was 3.33 in the series on biotinyl-Phe-oxazolone; 1.69 with biotinyl-Met-oxazolone; 1.69 with biotinyl-Leu-oxazolone; 1.54 with biotinyl-Val-oxazolone; 1.49 in the series on biotinyl-Trp-oxazolone; 1.67 in the series on biotinyl-Ile-oxazolone.
Take “AUUCCCCUGGUCAUCCAGUGA [Fam2.1 aminoacylation ribozyme variant]”: the self-aminoacylation with biotinyl-Phe-oxazolone amounted to 98.5; in the series with biotinyl-Met-oxazolone it was 11.6; in the series on biotinyl-Leu-oxazolone it was 13.2; in the series with biotinyl-Val-oxazolone, 6.74; with biotinyl-Trp-oxazolone, 14.3; with biotinyl-Ile-oxazolone, 6.96.
Take “CUACUUCGAACAAUCGGUCUG [Fam1A.1 aminoacylation ribozyme variant]”: the self-aminoacylation was 0.684 with biotinyl-Phe-oxazolone; 0.618 with biotinyl-Met-oxazolone; 0.614 in the series on biotinyl-Leu-oxazolone; 0.684 in the series on biotinyl-Val-oxazolone; 0.566 in the series on biotinyl-Trp-oxazolone; 0.623 with biotinyl-Ile-oxazolone.
